Measurements: PMC8229532 (Structure (London, England : 1993), 2010)

Biological target: the molecule itself
Experiment: crystal structure

B1: Phd (prevents host death) antitoxin of bacteriophage P1 (natural protein, UniProt Q06253 1-73, looked up)
chain: MQSINFRTARGNLSEVMNNVEAGEEVEITRRGREPAVIASKATFEAYKKAALDAEFASLFDTLDSTNKELVNR
modifications: selenomethionine (expressed in MJ9 minimal medium supplemented with selenomethionine)
B1: binds.
